Assay results as given in patent EP4541814A1.
Changes are numbered by the printed parent chain.

B1: Candidate 4B-5: vh60 fusion protein (SEQ ID NO:172) (VHH)
VHH: QVQLQESGGGLVQPGGSLRLSCAASGRTSINPYMAWFRQAPGKQREFVAAISSGGVYTYYTDSVKGRFTISRDNAKTTVYLQMNSLKPEDTAVYYCAADFRRGGNWNVDPFRYDYQYWGQGTQVTVSS
B2: Candidate 4B-6: vh113 fusion protein (SEQ ID NO:173) (VHH)
VHH: B1 VHH with E6Q, L11S, P14A, A23T, A24I, A40R, Q44E, T61A, T77N, Q116D
B3: Candidate 4A-5: vh167 fusion protein (SEQ ID NO:169) (VHH)
VHH: QVQLQQSGGGSVQAGGSLRLSCTISGRTFSSYAMGWFRQRPGKEREFVAAINWSSGSTYYADSVKGRFTISRDNAKNTVYLQMNSLKPEDTAVYYCAAGYQINSGNYNFKDYEYDYWGQGTQVTVSS
B4: Candidate 4B-4: vh167 fusion protein (SEQ ID NO:175) (VHH)
VHH: B3 VHH

Tests used:
[1] = biological target: trastuzumab-GFP (prepared in-house); experiment: SPR (Biacore 8K+), fusion protein amine-coupled to CM5, Fc block 2 uM, then trastuzumab-GFP 1 uM
[2] = biological target: epidermal growth factor receptor (EGFR), Example 4A analyte (UniProt P00533); experiment: SPR (Biacore 8K+), fusion protein amine-coupled to CM5, EGFR 200 nM, report point late binding
[3] = biological target: EGFR (SinoBiological, 10001-H08H) (UniProt P00533); experiment: SPR (Biacore 8K+), fusion protein amine-coupled to CM5, EGFR 200 nM

Binder | trastuzumab-eGFP response in analyte binding late (1 µM, RU) [1] | also measured
B1 | 4300 RU | –
B2 | 3910 RU | –
B3 | – | Binding capacity EGFR (200 nM) (RU) [2]: 2350 RU
B4 | – | EGFR response in analyte binding late (200 nM, RU) [3]: 1900 RU
